# Assay results from patent US8187838B2, “β-Galactoside-α2, 6-sialyltransferase, a gene encoding thereof, and a method for producing thereof” (Japan Tobacco Inc., priority 2006, dated 2012).
# Entries after “also recorded” stand apart in the source; their conditions may differ.
# Legend:
# [1] = Sialyltransferase activity of samples after each purification step; assay type: biochemical; settings: for Specific activity (U/mg) / Total activity (U): cacodylate pH 5, 5 minutes, 30° C.
# Protocol: (§1) Sialyltransferase activity was measured as described in J. Biochem., 120, 104-110 (1996) (which is hereby incorporated by reference in its entirety). More specifically, the enzymatic reaction was accomplished by using CMP-NeuAc (70 nmol, containing about 20,000 cpm CMP-NeuAc in which NeuAc was labeled with ^14C; NeuAc represents N-acetylneuraminic acid) as a glycosyl donor substrate, lactose (1.25 μmol) as a glycosyl acceptor substrate, NaCl added to give a concentration of 0.5 M, and the enzyme-containing reaction solution (30 μl) prepared as described above. The enzymatic reaction was carried out at 25° C. for about 10 to 180 minutes. After completion of the reaction, 1.97 ml of 5 mM phosphate buffer (pH 6.8) was added to the reaction solution, which was then applied to a Dowex 1×8 (PO4^3− form, 0.2×2 cm, BIO-RAD) column. The radioactivity was measured for the reaction product, i.e., sialyllactose contained in the eluate (0 to 2 ml) from this column to calculate the enzyme activity. One enzyme unit (1 U) is defined as the amount of enzyme required to transfer 1 micromole of sialic acid per minute.
# (§2) The enzyme activity was measured by the method reported in J. Biochem. 120, 104-110 (1996), in the same manner as described in Example 1 under conditions as indicated in the footnote of Table 3-1. For protein quantification, a Coomassie Protein Assay Reagent (PIERCE) was used according to the instruction manual attached thereto. One enzyme unit (1U) was defined as the amount of enzyme required to transfer 1 micromole of sialic acid per minute.
# Reaction time: 5 minutes Reaction temperature: 25° C.
# as §2, with “3-2.” for “3-1.”
# (§3) Reaction Conditions Reaction composition:
# Reaction time: 5 minutes Reaction temperature: 30° C.
# [2] = Sialyltransferase activity in homogenate of E. coli carrying the JT-ISH-224 gene clones (14C-NeuAc transfer to lactose); assay type: biochemical; settings: crude enzyme solution from E. coli TB1
# Protocol: as §1
# An induction experiment of protein expression was performed on the five clones obtained in (3) above (i.e., ISH224-N0C0/pTrc, ISH224-N1C0/pTrc, ISH224-N2C0/pTrc, ISH224-N3C0/pTrc and ISH224-N3.1C0/pTrc). A single colony of E. coli TB1 having the expression vector pTrc99A carrying each clone was inoculated into LB medium (6 ml) containing an antibiotic, ampicillin (final concentration 100 μg/mL), and pre-cultured at 30° C. to about A600=0.5, followed by addition of IPTG (isopropyl-β-D(−)-thiogalactopyranoside, Wako Pure Chemical Industries, Ltd., Japan) at a final concentration of 1 mM. After culturing with shaking at 30° C. for an additional 4 hours, the cells in 4 ml culture solution were collected by centrifugation. These cells were suspended in 200 μl of 20 mM Bis-Tris buffer (pH 7.0) containing 0.336% Triton® X-100 and 0.5 M sodium chloride, and ultrasonically homogenized under ice cooling. The resulting homogenate was defined as a crude enzyme solution, diluted 200-fold with 20 mM cacodylate buffer (pH 5.0) containing 0.336% Triton® X-100, and then provided for activity measurement. The reaction was carried out in duplicate. The reaction conditions are as indicated in the footnotes of Tables 1-1 and 1-2.
# as §3
# Reaction time: 2 minutes Reaction temperature: 30° C.
# [3] = after MONO Q (purified fraction)
molecule,measurement,setting,value
"ISH224-N3C0: truncated protein, SEQ ID NO: 12: methionine plus amino acids 111-514 of SEQ ID NO: 2 (protein, listed as Photobacterium sp.) MNVVAPSLEVYVDHASLPTLQQLMDIIKSEEENPTAQRYIAWGRIVPTDEQMKELNITSFALINNHTPADLVQEIVKQAQTKHRLNVKLSSNTAHSFDNLVPILKELNSFNNVTVTNIDLYDDGSAEYVNLYNWRDTLNKTDNLKIGKDYLEDVINGINEDTSNTGTSSVYNWQKLYPANYHFLRKDYLTLEPSLHELRDYIGDSLKQMQWDGFKKFNSKQQELFLSIVNFDKQKLQNEYNSSNLPNFVFTGTTVWAGNHEREYYAKQQINVINNAINESSPHYLGNSYDLFFKGHPGGGIINTLIMQNYPSMVDIPSKISFEVLMMTDMLPDAVAGIASSLYFTIPAEKIKFIVFTSTETITDRETALRSPLVQVMIKLGIVKEENVLFWADLPNCETGVCIAV",Specific activity (U/mg),[1]; Crude enzyme solution,2.0 U/mg
same,Total activity (U),[1]; Crude enzyme solution,4911 U
same,Specific activity (U/mg),[1]; after Hydroxyapatite,151 U/mg
same,Total activity (U),[1]; after Hydroxyapatite,997 U
same,Specific activity (U/mg),[1]; [3],264 U/mg
same,Total activity (U),[1]; [3],808 U
same,Specific activity (U/mg),[1]; after Q SEPHAROSE,26.5 U/mg
same,Total activity (U),[1]; after Q SEPHAROSE,3614 U
same,"fold higher specific activity than Pasteurella multocida-derived β-galactoside-α2,3-sialyltransferase (60 U/mg)",[1]; purified fraction,about 4.4 fold
same,"fold higher specific activity than β-galactoside-α2,6-sialyltransferase derived from Photobacterium damselae strain JT0160 (5.5 U/mg)",[1]; purified fraction,about 48 fold
same,sialyltransferase activity of the expressed clone (in words),[2],smallest clone that retained the activity
same,sialyltransferase activity of the expressed clone (in words),[2]; listed as ISH224-N3C0/pTrc,expressed sialyltransferase; also recorded: retained the activity
